# Assay results: US20180037644A1 (Pfizer, published 2018)
# Numbering of substitutions follows the chain as printed.
# T1: wild-type cynomolgus monkey IL-33 (cynomolgus monkey)
# T1 construct: Used reduced (DTT-treated); His6 in the entry; also called cyno IL-33 (WT + DTT); pfe cyno WT IL-33
# T1 chain: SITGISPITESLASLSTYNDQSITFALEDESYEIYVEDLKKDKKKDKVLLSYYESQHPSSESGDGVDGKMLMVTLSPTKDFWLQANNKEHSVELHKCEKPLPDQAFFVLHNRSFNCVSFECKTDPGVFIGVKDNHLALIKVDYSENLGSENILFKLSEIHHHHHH
# T2: human IL-33 WT, reduced with DTT (human, UniProt O95760 112-270)
# T2 construct: Wild-type cysteines, FLAG tag in the entry; reduced with 3 mM DTT before use; also called huIL33 wt; hu IL-33 (WT + DTT)
# T2 sequence: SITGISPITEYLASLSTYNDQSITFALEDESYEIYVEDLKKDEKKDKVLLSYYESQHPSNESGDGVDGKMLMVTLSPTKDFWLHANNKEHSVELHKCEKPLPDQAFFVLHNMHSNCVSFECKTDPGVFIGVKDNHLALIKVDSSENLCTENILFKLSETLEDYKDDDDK
# T3: human IL-33 (mm2) (human, UniProt O95760 112-270)
# T3 construct: Variant in which all four cysteine residues are serine; the entry carries an N-terminal Met and a C-terminal His6; Biotinylated in some assays; also called hIL-33 (mm2); huIL-33 (mm2)
# T3 chain: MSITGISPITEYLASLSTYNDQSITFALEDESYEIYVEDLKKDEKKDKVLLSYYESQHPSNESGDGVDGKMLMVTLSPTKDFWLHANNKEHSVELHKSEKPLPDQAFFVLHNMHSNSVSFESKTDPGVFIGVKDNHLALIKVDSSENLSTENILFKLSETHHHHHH
# T4: cynomolgus monkey IL-33 (cys mut) (cynomolgus monkey)
# T4 construct: Variant in which the three cysteine residues are serine; N-terminal Met and C-terminal His6 in the entry; also called cyno IL-33; cyno IL-33 (cys mut)
# T4 chain: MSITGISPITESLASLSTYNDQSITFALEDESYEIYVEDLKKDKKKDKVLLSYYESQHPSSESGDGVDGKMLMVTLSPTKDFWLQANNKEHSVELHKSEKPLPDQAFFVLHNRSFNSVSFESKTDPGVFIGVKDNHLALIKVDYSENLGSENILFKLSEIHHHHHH
# T5: IL-1α (UniProt P01583 113-271)
# T5 sequence (looked up): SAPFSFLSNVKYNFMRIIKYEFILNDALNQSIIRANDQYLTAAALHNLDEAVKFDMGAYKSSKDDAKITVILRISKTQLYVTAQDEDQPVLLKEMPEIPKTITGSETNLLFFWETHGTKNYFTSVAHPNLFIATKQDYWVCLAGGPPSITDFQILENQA
# T6: IL-36γ (UniProt Q9NZH8 18-169)
# T6 sequence (looked up): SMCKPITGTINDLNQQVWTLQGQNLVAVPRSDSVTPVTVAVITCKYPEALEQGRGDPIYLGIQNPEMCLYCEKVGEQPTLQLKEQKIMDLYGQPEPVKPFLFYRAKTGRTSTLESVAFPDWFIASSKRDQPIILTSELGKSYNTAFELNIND
# T7: IL-18 (UniProt Q14116 37-193)
# T7 sequence (looked up): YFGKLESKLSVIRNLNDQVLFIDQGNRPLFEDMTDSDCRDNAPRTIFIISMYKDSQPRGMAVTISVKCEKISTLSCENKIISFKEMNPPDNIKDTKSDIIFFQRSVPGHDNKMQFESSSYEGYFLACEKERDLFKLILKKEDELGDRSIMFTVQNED
# T8: IL-36α (UniProt Q9UHA7 6-158)
# T8 sequence (looked up): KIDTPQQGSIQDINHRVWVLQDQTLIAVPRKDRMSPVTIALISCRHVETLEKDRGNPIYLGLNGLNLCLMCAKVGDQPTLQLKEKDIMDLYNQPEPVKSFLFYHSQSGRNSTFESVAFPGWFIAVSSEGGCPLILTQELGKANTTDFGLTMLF
# B1: IL33-158LS Fab (Fab, V domains shown)
# VH: EVQLVESGGGLVQPGGSLRLSCAASGFTFSSYWMYWVRQAPGKGLEWVAAITPNAGEDYYPESVKGRFTISRDNAKNSLYLQMNSLRAEDTAVYYCARGHYYYTSYSLGYWGQGTLVTVSS
# VL: DIQMTQSPSSLSASVGDRVTITCKASQNINKHLDWYQQKPGKAPKLLIYFTNNLQTGVPSRFSGSGSGTDFTLTISSLQPEDFATYYCFQYNQGWTFGGGTKVEIKR
# B2: IL33-167LS Fab (Fab, V domains shown)
# VH: B1 VH with A50S, E62D
# VL: B1 VL with Q93N
# B3: rat 7E8 Fab (Fab, V domains shown)
# VH: EVQLVETGGGLVQPGRSLKLSCKTSGFTFSSYWMYWIRQAPGKGLEWVSSITPNGGNTYYPDSVKGRFTISRDNAENTIYLQMSSLRSEDTATYFCAKGHYYYTSYSLGYWGQGSLVTVSS
# VL: EIQMTQSPSVLSASVGDRVTLSCKASQNINKHLDWYQQKLGEAPKLLIYFTNNLQTGIPSRFSGSGSGTDCTLTINSLQPGDVATYFCFQYNNGWTFGGGTKLELD
# notes: Fab of the parental rat antibody; also called parental rat Fab 7E8
# Assays:
# [1] = target: T1, wild-type cynomolgus monkey IL-33; assay: SPR, IL-33 amine-coupled to CM5, Fab in solution, 37 C, Experiment 1
# Experimental: (§1) Biacore kinetic assays were conducted at 37° C. at a collection rate of 1 Hz on a Biacore T200 instrument (GE Healthcare). Reduced and non-reduced wild-type human IL-33 and reduced wild-type cynomolgus monkey IL-33 were covalently coupled to a CM5 sensor chip (catalogue number BR100530, GE Healthcare) using an amine coupling kit (catalogue number BR100050, GE Healthcare) according to the manufacturer's protocol. Flow cell 1 was activated and blocked for use as a reference flow cell. […] The dilution and running buffer was HBS-EP+(10 mM HEPES pH 7.4, 0.15M NaCl, 3 mM EDTA, 0.05% P-20). Rate constants and affinities were determined by fitting the resulting sensorgram data to a 1:1 model in Biacore T200 Evaluation software version 1.0 (GE Healthcare). […] Kinetic properties of the bivalent IgG cannot be directly compared to those of monovalent Fab fragments and are not presented here.
# [2] = target: T2, human IL-33 WT, reduced with DTT; assay: as above
# Experimental: as §1
# human IL-33 (mm2) = target: T3, human IL-33 (mm2); assay: SPR, IL-33 amine-coupled to CM5, Fab in solution, 37 C
# Experimental: (§2) Biacore kinetic assays were conducted at 37° C. at a collection rate of 1 Hz on a Biacore T200 instrument (GE Healthcare). Human IL33 (mm2), cynomolgus monkey IL-33, and reduced huIL33 wt were covalently coupled to a CM5 sensor chip (catalogue number BR100530, GE Healthcare) using an amine coupling kit (catalogue number BR100050, GE Healthcare) according to the manufacturer's protocol. […] The dilution and running buffer was HBS-EP+(10 mM HEPES pH 7.4, 0.15M NaCl, 3 mM EDTA, 0.05% P-20). Rate constants and affinities were determined by fitting the resulting sensorgram data to a 1:1 model in Biacore T200 Evaluation software version 1.0 (GE Healthcare).
# [3] = target: T4, cynomolgus monkey IL-33 (cys mut); assay: as above
# Experimental: as §2
# [4] = target: T2, human IL-33 WT, reduced with DTT; assay: as above
# Experimental: as §2
# [5] = target: T1, wild-type cynomolgus monkey IL-33; assay: SPR, Experiment 2; reference: human IL-33 (WT + DTT)
# Experimental: as §1
# IL-1α = target: T5, IL-1α; assay: SPR (Biacore T200), Fab captured on the chip, cytokine injected
# Description: (§3) The panel of cytokines included IL-1α, IL-1β, IL-18, IL-36α, and IL-36γ.
# IL-36γ = target: T6, IL-36γ; assay: as above
# Description: as §3
# IL-18 = target: T7, IL-18; assay: as above
# Description: as §3
# IL-36α = target: T8, IL-36α; assay: as above
# Description: as §3
# IL-1β = IL-1β (UniProt P01584 117-269); assay: as above
# Description: as §3
# [6] = target: T1, wild-type cynomolgus monkey IL-33; assay: SPR, Experiment 1; reference: human IL-33 (WT + DTT)
# Experimental: as §1
# [7] = target: T1, wild-type cynomolgus monkey IL-33; assay: SPR, IL-33 amine-coupled to CM5, Fab in solution, 37 C, Experiment 2
# Experimental: as §1
# [8] = target: T2, human IL-33 WT, reduced with DTT; assay: as above
# Experimental: as §1
# [9] = target: T2, human IL-33 WT, reduced with DTT; assay: SPR, IL-33 amine-coupled to CM5, rat Fab in solution, 37 C
# Experimental: Parallel studies were performed with non-reduced IL-33 and with IL-33 samples that had been reduced with 3 mM DTT for 3 hr. at room temperature prior to immobilization. […] Flow cell 1 was activated and blocked for use as a reference flow cell. […] Dissociation was monitored for 3600 seconds. Biacore kinetic assays were conducted at 37° C. at a collection rate of 1 Hz on a Biacore T200 instrument (GE Healthcare). Rate constants and affinities were determined by fitting the resulting sensorgram data to a 1:1 model in Biacore T200 Evaluation software version 1.0 (GE Healthcare).
Binder,Kd [1] [nM],koff [1] [s⁻¹],kon [1] [M⁻¹ s⁻¹],Kd [2] [nM],koff [2] [s⁻¹],kon [2] [M⁻¹ s⁻¹],Kd (human IL-33 (mm2)) [nM],koff (human IL-33 (mm2)) [s⁻¹],kon (human IL-33 (mm2)) [M⁻¹ s⁻¹],Kd [3] [nM],koff [3] [s⁻¹],kon [3] [M⁻¹ s⁻¹],Kd [4] [nM],koff [4] [s⁻¹],kon [4] [M⁻¹ s⁻¹],Ratio of cynomolgus monkey KD/human KD [5],Ratio of cynomolgus monkey KD/human KD [6],Kd [7] [nM],koff [7] [s⁻¹],kon [7] [M⁻¹ s⁻¹],further results
B1,0.139,0.00062,4.5e+06,0.106,0.00033,3.13e+06,0.013,3.09e-05,2.42e+06,0.0104,1.71e-05,1.64e+06,0.0696,0.000129,1.86e+06,2.3,1.3,0.228,0.00121,5.32e+06,binding result (IL-1α): no binding; binding result (IL-36γ): no binding; binding result (IL-18): no binding; binding result (IL-36α): no binding; binding result (IL-1β): no binding; Kd [8]: 0.101 nM; koff [8]: 0.000417 s⁻¹; kon [8]: 4.11e+06 M⁻¹ s⁻¹
B2,0.139,0.000665,4.81e+06,0.091,0.000276,3.03e+06,0.0101,4.8e-05,4.75e+06,0.0134,2.09e-05,1.57e+06,0.0452,6.56e-05,1.45e+06,2.5,1.5,0.218,0.00119,5.5e+06,Kd [8]: 0.089 nM; koff [8]: 0.00035 s⁻¹; kon [8]: 3.96e+06 M⁻¹ s⁻¹
B3,–,–,–,–,–,–,–,–,–,–,–,–,–,–,–,–,–,–,–,–,Kd [9]: 0.0442 nM; koff [9]: 0.000116 s⁻¹; kon [9]: 2.55e+06 M⁻¹ s⁻¹
